Tests used:
MS2 coat protein [1] = assay: apparent KD of MS2 coat protein, switch ON state; designed switch direction (-1 OFF switch, 1 ON switch): -1; higher = weaker reporter binding; conditions: FMN input: 0 or 200 uM; Eterna round: R93 (includes R88 designs)
How it was run: (§1)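 In 100 mM Tris-HCl pH 7.5 with 80 mM KCl and 4 mM MgCl2, and without or with constant ligand, SNAP-549-labelled MS2 coat protein was titrated in twofold steps from 0.7 or 1.5 nM to 3 µM. Per-step times went from 0.8–1.5 h down to 10–20 min. The RNA switches were transcribed on-chip from Illumina sequencing clusters, and apparent KD is the per-design median of normalised cluster binding-curve fits.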

MS2 coat protein [2] = assay: apparent KD of MS2 coat protein, switch OFF state (with FMN for OFF switches, without FMN for ON switches); designed switch direction (-1 OFF switch, 1 ON switch): -1; higher = weaker reporter binding; conditions: FMN input: 0 or 200 uM; Eterna round: R93 (includes R88 designs)
How it was run: as §1

## GGGUCACAUGAGGAUCACCCAUGUAAGGAUAUGCUAGGGAUGGAAACCAGGCCGCAACGCAGAAGGUACUAAAG [Janelle Amethyst 18 Mod 13 - Jieux - Exclusion 1]
MS2 coat protein [1]
  apparent KD of MS2 coat protein: 50.7 nM
MS2 coat protein [2]
  apparent KD of MS2 coat protein: 64.5 nM

## AGAAAGUGAGGAUAUCGAAGACUGUCGAAAAGACAGUCGAACGAGAAGGCACAUGAGGAUCACCCAUGUGAGGG [Mat - Exaclusion 4 - Eli mod - D67]
MS2 coat protein [1]
  apparent KD of MS2 coat protein: 76.3 nM
MS2 coat protein [2]
  apparent KD of MS2 coat protein: 58.2 nM

## AGCUAGAGAGGAUAUACGUGAGUGAUAAAAGUCUGAUAACUACAUGAGGAUCACCCAUGUAGAAGGCUCUAGCA [Ex2 Design 166: Sub-opt 30]
MS2 coat protein [1]
  apparent KD of MS2 coat protein: 69.1 nM
MS2 coat protein [2]
  apparent KD of MS2 coat protein: 22.2 nM

## AAAAAACAUGAGGAUCACCCAUGUGAGGAUAUUAAAAAUAAGAAGGCAUAAAAAAAAAUAAGAAGGCACAUGAA [Meechl MS2 Ex1]
MS2 coat protein [1]
  apparent KD of MS2 coat protein: 27.9 nM
MS2 coat protein [2]
  apparent KD of MS2 coat protein: 33.2 nM

## AACUAGCUAGGAUAUACAUGAGGAUCACCCAUGUAAAAAAAAAAAAAAAGAUCAAAAUGUAGAAGGAGCUAGUA [Design 2 - Brourd - Exclusion 3]
MS2 coat protein [1]
  apparent KD of MS2 coat protein: 59.6 nM
MS2 coat protein [2]
  apparent KD of MS2 coat protein: 58.5 nM

## AAAAAGCGAGGAUAUACAUAGCUAAGACAAAUAAGCAAAAAACAUGAGGAUCACCCAUGUAGAAGGCGCAAAAA [Exclusion2-01]
MS2 coat protein [1]
  apparent KD of MS2 coat protein: 19.6 nM
MS2 coat protein [2]
  apparent KD of MS2 coat protein: 15.4 nM

## UAAGGACAUGAGGAUCACCCAUGUGAGGAUAUGCUCUACGAACGUUUAUUUAUGAGAAGCAGAAGGCACAUUUU [try 2]
MS2 coat protein [1]
  apparent KD of MS2 coat protein: 50.4 nM
MS2 coat protein [2]
  apparent KD of MS2 coat protein: 127 nM

## AAAUUGUCAGGAUAUCCUAUAAUAAUAAAAUAGAGGAAAUAGGAGAAGGGACAUGAGGAUCACCCAUGUAAAAC [May 84]
MS2 coat protein [1]
  apparent KD of MS2 coat protein: 49.2 nM
MS2 coat protein [2]
  apparent KD of MS2 coat protein: 37 nM

## GAAGUGUUAGGAUAUCGAUGAAUAAUAAAACAAAGGAACAUUGAGAAGGAACAUGAGGAUCACCCAUGUAUAAC [May 81]
MS2 coat protein [1]
  apparent KD of MS2 coat protein: 27.7 nM
MS2 coat protein [2]
  apparent KD of MS2 coat protein: 25.2 nM

## AAGAAGGUAGGAUAUACAUGAGGAUCACCCAUGUAAAAGAAAGAAAGGGAAAAGAAAAGUAGAAGGACCAAGAA [Usermaatre Amenemope]
MS2 coat protein [1]
  apparent KD of MS2 coat protein: 23.5 nM
MS2 coat protein [2]
  apparent KD of MS2 coat protein: 27.4 nM

## AACAGUACAGGAUAUACAUGAGGAUCACCCAUGUGGGUGUUAAGUGGCGUACCACAAAGUAGAAGGGUACUGGA [JL In the Red CG]
MS2 coat protein [1]
  apparent KD of MS2 coat protein: 327 nM
MS2 coat protein [2]
  apparent KD of MS2 coat protein: 106 nM

## AAAAACUGAGGAUAUACGAAAAAAAAAAAAAAAAAAAAAAAACAUGAGGAUCACCCAUGUAGAAGGCAGAAAAA [exclusion 02 - A]
MS2 coat protein [1]
  apparent KD of MS2 coat protein: 41.4 nM
MS2 coat protein [2]
  apparent KD of MS2 coat protein: 57.5 nM

## AGUCGGCGAGGAUAUACAUGAGGAUCACCCAUGUGAGAGCUAAAAGUGAGUCAGAAAAGUAGAAGGCGCUGACA [JL Lego Mod 6]
MS2 coat protein [1]
  apparent KD of MS2 coat protein: 96.5 nM
MS2 coat protein [2]
  apparent KD of MS2 coat protein: 94.1 nM

## AGACAUACAGGAUAUACAUAGGAAAAAAAAAAAAAAAUUCAACAUGAGGAUCACCCAUGUAGAAGGGUAUGUCA [Ex2 Design 172: Random 2]
MS2 coat protein [1]
  apparent KD of MS2 coat protein: 65.5 nM
MS2 coat protein [2]
  apparent KD of MS2 coat protein: 69.9 nM

## GCUUGGCAAGGAUAUACAUGAGGAUCACCCAUGUGAGAGAAAAAAGUGAGAAAGAAAAGUAGAAGGUGUUGAGG [salish99-ex3-76]
MS2 coat protein [1]
  apparent KD of MS2 coat protein: 44.4 nM
MS2 coat protein [2]
  apparent KD of MS2 coat protein: 48.9 nM

## AAAAAGGGAGGAUAUACGAAACAGGGAAACCUGAAAAAGGGACAUGAGGAUCACCCAUGUAGAAGGCCCAAGAA [Clint Eastwood 64% 5]
MS2 coat protein [1]
  apparent KD of MS2 coat protein: 40.2 nM
MS2 coat protein [2]
  apparent KD of MS2 coat protein: 268 nM

## AAAAAACAUGAGGAUCACCCAUGUGAGGAUAUUGGUAUUAAAGACACCCACUUAAUGGCGAGAAGGCGCAAAAA [Brourd 613 Mod 19 - Jieux - Exclusion 1]
MS2 coat protein [1]
  apparent KD of MS2 coat protein: 25.5 nM
MS2 coat protein [2]
  apparent KD of MS2 coat protein: 27.5 nM

## AGAAAACAUGAGGAUCACCCAUGUGAGGAUAUGCGAAUAAAGAAACAAAUAAAAGAAAGCAGAAGGCACAACAA [Ex 1 Tesla 4]
MS2 coat protein [1]
  apparent KD of MS2 coat protein: 31.9 nM
MS2 coat protein [2]
  apparent KD of MS2 coat protein: 36 nM

## AAAAAGGAAGGAUAUACGAACAUGUCAAAAGACGUGAAGGGACAUGAGGAUCACCCAUGUAGAAGGUCCAAAAA [JL Half Open 23]
MS2 coat protein [1]
  apparent KD of MS2 coat protein: 83.4 nM
MS2 coat protein [2]
  apparent KD of MS2 coat protein: 99.6 nM

## AACUAGUCAGGAUAUACGAACAUGUCAAAAAACAUAAAGGGACAUGAGGAUCACCCAUGUAGAAGGGACUAACA [74%, Web mod - With 5 less G's]
MS2 coat protein [1]
  apparent KD of MS2 coat protein: 299 nM
MS2 coat protein [2]
  apparent KD of MS2 coat protein: 500 nM

## AACUAGUCAGGAUAUACGAACAUGUCAAAAGACGUGAAGGGACAUGAGGAUCACCCAUGUAGAAGGGACUAGCA [74%, Web mod - With 1 less G's]
MS2 coat protein [1]
  apparent KD of MS2 coat protein: 47.1 nM
MS2 coat protein [2]
  apparent KD of MS2 coat protein: 147 nM

## GUCAGCUGAGGAUAUACAGGUGAGGCCGCAGGACAAAAUAUACAUGAGGAUCACCCAUGUAGAAGGCGGAAGAC [Vegea]
MS2 coat protein [1]
  apparent KD of MS2 coat protein: 33.8 nM
MS2 coat protein [2]
  apparent KD of MS2 coat protein: 44.5 nM

From the supplement of paper PMC9170038
